According to paper PMC1847702 (PLoS ONE, 2007):

Target: T1, ubiquitin-vinylmethylester (UniProt P0CG48 1-76, vinylmethylester (Michael acceptor) added to the C-terminus)
T1 construct: also called ubiquitin-VME; ubiquitin probe
Test: covalent adduct formation with electrophilic (activity-based) probe, SDS-PAGE and Coomassie staining
Conditions: both partners purified

B1: His-tagged elaD, bacterially expressed (enzyme)
chain: MMVTVVSNYCQLSQTQLSQTFAEKFTVTEELLQSLKKTALSGDEESIELLHNIALGYDKFGKEAEDILYHIVRTPTNETLSIIRLIKNACLKLYNLAHIATNSPLKSHDSDDLLFKKLFSPSKLMTIIGDEIPLISEKQSLSKVLLNDENNELSDGTNFWDKNRQLTTDEIACYLQKIAANAKNTQVNYPTGLYVPYSTRTHLEDALNENIKSDPSWPNEVQLFPINTGGHWILVSLQKIVNKKNNKLQIKCVIFNSLRALGYDKENSLKRVINSFNSELMGEMSNNNIKVHLNEPEIIFLHADLQQYLSQSCGAFVCMAAQEVIEQRESNSDSAPYTLLKNHADRFKKYSAEEQYEIDFQHRLANRNCYLDKYGDANINHYYRNLEIKHSQPKNRASGKRVS
notes: also called recombinant elaD
- binding result: binds
